Assay: soluble fraction after stress (log2 fold change); higher = more stays soluble; pooled small domains, quantitative proteomics
Conditions: stress: pH 4
In short: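 Aggregation propensity is estimated from the fold change in each domain's soluble amount after acid stress. Pooled small-domain libraries were stressed at pH 4, and higher log2 values mean more stayed soluble.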

Row | Sequence | soluble fraction (log2)
1 | HMKLRSIQEQVQYLEKVDNQKAMQIILNMNDKASAVQILRNMKKEKAAAILAQMDPLQAAQILEDLA | -0.132
2 | HMKLSDDIIVDTIKEIIEENKNMIEQRKMGAMGPLMGKAMAKFKGKADGQTVSNVIKDEILNIIN | 0.0647
3 | HMKLSIEDLAAELIRKIEAGDIGNEQGKMPSERELLAIYPVSRYTLRQALNKLSKMGWIYQMQGRGSYIRF | -0.83
4 | HMKLSNELLNAIMLIKKGIRNPTSLAQRLNTDTQYAKNLLEHLKMTGLINEHSRLTSRGLDIFHQK | -0.295
5 | HMKLTEEEFNAKRKAYLDRLETLNDEAVIKATFMEAASGLGLQKGSAEFGDLRKYFVDRIVDIK | -0.903
6 | HMKLTEGETIFLNESDTADWKKIPGIGSVYASRIVKYRNLLGGFVSVNQLREVYGIDDELFAKIYPYI | -0.0375
7 | HMKLTESQLHKFTNDAVLAHIRNLIEFKGAFTEDDIEPIIRDRAAVYGIDLEDEDYKKVKTDVEYHFK | -1.53
8 | HMKLVELVGSPKQIAWAEDIRKNMISYLSALVRKYEAENRPARAEKRAKDMEILSNIKEASWFIENRS | 0.155
9 | HMKMAKTIKEIAEEIGVSKQAVFKKIKQVPLSTEIEKFISTVDGKKLVSVDGENLIKQAFQR | 0.255
10 | HMKMLKAPIPGTIIEVKVNPGQTVNDGDVAVVLEAMKMESDIHFNSSGKVKKIHVNKGDSVQEGDDLIELE | -0.605
11 | HMKMNRELNQRQIKMLDYLSVNPKTTRKQYTKMMGISFMTSYRDIQELIDKAYIISKGQGRGTYYILAN | -0.0196
12 | HMKMQIGEIIRKYRKSNHMTQEEMAERLGVSAPAVNKWENGNSMPDIMLLAPITRLLGISLDELLSFE | -0.581
13 | HMKMSVEEVNLSPRTTNALINNDIKTMKDLVALTDTELRDLKGFGSKAYEEVKEKLSELGLSTQ | -0.546
14 | HMKMSVKNEIISLLEKNRDTSISGQVIADSLNVTRAAVWKAIKVLKEEGYNIDGTPNKGYILLGNN | 0.0991
15 | HMKMTFGENLHKLRKIYRLSQEDVASAINLKRSDIAAVEKGDRVLNDEELDKLADFIGIDIVDLL | -0.853
16 | HMKMVSTPTGTRISLTQVKEFISNASFDDMKEILLEVLAWFKAHNLGNPFNYNRAFEFIVAH | -0.302
17 | HMKNELNSKLIISIKEALPPQIKVATYLMDLLSLGREAVYRRIRGDVSFDLEELSIISKALNISIDDVL | -2.53
18 | HMKNESLMLPRDIDYSRVHGLSNEAIQKLQDALPQSLGQASRIEGITPATLSLLLLYLKKNNKRI | 0.0199
19 | HMKNHSTFKSVLSNIEFPINERISGHAIQNPILGLIKADHPNFSSDQYIAISELNFYREKYISNYLLTEI | -1.6
20 | HMKNKIYGTIVSSTSGEETVYKVFQVDSSKDITYLFRPDMIRLAHENNQALEFNEETGRGKRIEMSDLPK | -0.0332
21 | HMKNLHLVPNVVGMSAKEAKNTLKSFNIKYKPIYGSSNKYDENYIFNQNPRKGKTIKEQEVVTIYISRGAD | ≥ 0.43
22 | HMKNNNIIFSEFLKEVENGRVVEVRIQGNNIQGIMSNGKEFTTYSPNYPNLIEKLTETGVSISAAPL | -0.516
23 | HMKNPLIIGMTKDKIIELIGMPDNIKFLDSSLSKSEVWNYDKFGKKLYIKDEKLYQIENIEE | -0.491
24 | HMKNSAAKETILAFLKKNGGELFTQMQIIEKFQKMIPAPVLRITLEELLNKGQVEITSKGKYYLSVKGS | -0.903
25 | HMKNSKIVIQKRHNHILELLKQNRTMDVTVLAERLGVTGATIRRDLKKLEQEGTIVRSFGKVSFVG | ≥ 0.43
26 | HMKNTVGEYRKLKSTTILYSNSDLTGTKYTYLPNTTVKILKNISSTVDYVYIKATNRYAYINIYAYT | 0.326
27 | HMKNVENIILEQLKKNIYDDLNNASFEEIILIDAEKSIYKGTIKANYIEYNFKINLSTGEILKWKLK | -0.763
28 | HMKNVSVKMILSPESLGEIQVDLVFSKGKDLEIMLRPETAEVAKLIQSNSASLREQLSLEHKGPLSLNVS | -0.405
29 | HMKNYALHEPMMDRIAKVNALYDAGHTIKYMTARGAVSMVDYYDLTKSQLDSWGAKYHELSVGK | 0.179
30 | HMKNYYEVLGVPRDAAAPDIKRAFRKLAKQFHPDHNPGDAKAEERFKLVSQAYDVLGDEEKRKLYDQFGE | 0.254

From the domain aggregation screens of Martell et al. (2025)
